Here are results for one molecule from patent US11866736B2, “Protein prostheses for mitochondrial diseases or conditions” (The General Hospital Corporation, priority 2015, dated 2024).

This assay concerns HeLa Tet3G cells. Kind of assay: Glucose concentration-dependent cell survival. Type of assay: cell-based, human. The method, then: Images of 96-well plates with fixed cells stained with Hoechst 33345 were collected using Molecular Devices IMAGEXPRESS® Micro XLS. Four images were taken to cover the whole well. Images were analyzed and nuclei number per well was counted using CellProfiler 2.0 image analysis software (Carpenter, et al., Genome Biol., 7:R100, 2006; and Kamentsky, et al., Bioinformatics, 27:1179, 2011).
Ten thousand HeLa Tet3G NDI1, Luciferase, LbNOX or mitoLbNOX cells were seeded in 200 μl of DMEM (DMEM (US Biological, D9800), 3.7 g/L NaHCO3, 10% dialyzed FBS (Life Technologies, 26400-044)) per well of a black 96-well plate with clear bottom (Corning, 3904). Twenty four hours after seeding, 10 μl of 6 μg/ml doxycycline (300 ng/ml final concentration) or water was added to each well. Twenty four hours after addition of doxycycline, media was exchanged to DMEM (DMEM (US Biological, D9800), 3.7 g/L NaHCO3, 10% dialyzed FBS (Life Technologies, 26400-044))±300 ng/ml doxycycline. […] After 24 hours, media was aspirated and cells were fixed by adding 100 μl of 4% paraformaldehyde in PBS and incubating at room temperature for at least 30 min. Paraformaldehyde solution was aspirated and cells were stained with 200 μl of 1 μg/ml Hoechst 33345. Plates were covered with sealing aluminum foil and stored at 4° C. before counting cells in each well with Molecular Dynamics IMAGEXPRESS® Ultra (see “Nuclei counting using Molecular Devices IMAGEXPRESS® Ultra,” above).

B1: LbNOX: water-forming NADH oxidase endogenous to Lactobacillus brevis; tested with C-terminal FLAG tag (protein, listed as Lactobacillus brevis)
chain: KVTVVGCTHAGTFAIKQILAEHPDAEVTVYERNDVISFLSCGIALYLGGKVADPQGLFYSSPEELQKLGANVQMNHNVLAIDPDQKTVTVEDLTNHAQTTESYDKLVMTSGSWPIVPKIPGIDSDRVKLCKNWAHAQALIEDAKEAKRITVIGAGYIGAELAEAYSTTGHDVTLIDAMARVMPKYFDADFTDVIEQDYRDHGVQLALGETVESFTDSATGLTIKTDKNSYETDLAILCIGFRPNTDLLKGKVDMAPNGAIITDDYMRSSNPDIFAAGDSAAVHYNPTHQNAYIPLATNAVRQGILVGKNLVKPTVKYMGTQSSSGLALYDRTIVSTGLTLAAAKQQGLNAEQVIVEDNYRPEFMPSTEPVLMSLVFDPDTHRILGGALMSKYDVSQSANTLSVCIQNENTIDDLAMVDMLFQPNFDRPFNYLNILAQAAQAKVAQSVNA
modifications: C-terminal FLAG tag
Consider B1, for which the “effect on decrease in cell number (cell survival) at low glucose concentrations in the presence of piericidin” value (1 μM piericidin, 24 hours) is listed as “no effect”. Besides, under “antimycin”, the “effect on decrease in cell number (cell survival) at low glucose concentrations in the presence of antimycin” value was “no effect”.
